Results taken from patent publication US20220324954A1 (SHANGHAI NOVAMAB BIOPHARMACEUTICALS, published 2022).

Key:
human VEGFA [1] = molecular target: T1, human VEGFA (human, UniProt P15692-4 27-191, limits assumed, biotinylated (sites not given) in the ELISA assays); assay: blocking ELISA: VEGFR2 coated, biotinylated VEGFA with antibody dilutions (FIG. 4)
T1 construct: also called biotinylated VEGFA protein; biotin-HVEGFA
Procedure: (§1) (4) After washing with PBST for 5 times, 100 uL SA-HRP (1:100000 dilution) was added and incubated at 37° C. for 1 hour. (5) After washing with PBST for 5 times, TMB chromochrome solution 100 uL was added, and developed at 37° C. for 10 min, 2M H₂SO₄ (50 uL/well) was added to terminate the reaction, and the absorption value was measured at 450 nm wavelength with a microplate reader.

human VEGFA [2] = molecular target: T1, human VEGFA; assay: cell-based or functional assay
human VEGFA [3] = molecular target: T1, human VEGFA; assay: blocking ELISA: VEGFR2 coated, biotinylated VEGFA with antibody dilutions (FIG. 1)
Procedure: as §1

human VEGFA [4] = molecular target: T1, human VEGFA; assay: blocking ELISA: VEGFR2 coated, biotinylated VEGFA with antibody dilutions (FIG. 5)
Procedure: as §1

human VEGFA [5] = molecular target: T1, human VEGFA; assay: blocking ELISA: VEGFR1 coated, biotinylated VEGFA with antibody dilutions (FIG. 10)
Procedure: (1) VEGFR1 protein was coated on an enzyme plate (1 ug/mL, 100 uL/well) and incubated at 4° C. overnight. […] (4) After washing with PBST for 5 times, 100 uL SA-HRP (1:100000 dilution) was added and incubated at 37° C. for 1 hour. (5) After washing with PBST for 5 times, TMB solution (100 uL) was added and developed at 37° C. for 10 min, 2M H₂SO₄ (50 uL/well) was added to terminate the reaction, and the absorption value at 450 nm wavelength was measured with a microplate reader.

human VEGFB = molecular target: T2, human VEGFB (human, UniProt P49765-2 22-188, limits assumed, biotinylated (sites not given)); assay: ELISA, antibody coated, biotinylated ligand, SA-HRP
T2 construct: also called Biotin-HVEGFB
T2 sequence (looked up): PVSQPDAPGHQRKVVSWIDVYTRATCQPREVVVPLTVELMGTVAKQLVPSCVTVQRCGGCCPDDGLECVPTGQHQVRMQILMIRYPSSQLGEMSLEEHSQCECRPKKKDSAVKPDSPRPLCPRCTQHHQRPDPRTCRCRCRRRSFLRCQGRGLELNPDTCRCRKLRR
Procedure: (§2) ELISA was used to verify whether the candidate antibodies could cross-react with VEGF homologous proteins. (1) 1 ug/mL antibody to be measured was added to the ELISA plate and coated overnight at 4° C. […] (4) After washing with PBST for 5 times, 100 uL diluted SA-HRP (1:5000 diluted) was added at 37° C. and incubated for 1 hour; (5) After washing with PBST for 5 times, TMB solution (100 uL) was added and developed at 37° C. for 10 min, add 2M H₂SO₄ (50 uL/well) was added to terminate the reaction, and the absorption value at 450 nm wavelength was measured with a microplate reader.

human VEGFD = molecular target: T3, human VEGFD (human, UniProt O43915 89-205, limits assumed, biotinylated (sites not given)); assay: as above
T3 construct: also called Biotin-HVEGFD
T3 sequence (looked up): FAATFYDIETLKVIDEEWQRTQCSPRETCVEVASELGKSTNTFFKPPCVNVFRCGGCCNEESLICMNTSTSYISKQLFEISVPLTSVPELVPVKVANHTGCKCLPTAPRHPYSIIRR
Procedure: as §2

human VEGFC = molecular target: T4, human VEGFC (human, UniProt P49767 112-227, limits assumed, biotinylated (sites not given)); assay: as above
T4 construct: also called Biotin-HVEGFC
T4 sequence (looked up): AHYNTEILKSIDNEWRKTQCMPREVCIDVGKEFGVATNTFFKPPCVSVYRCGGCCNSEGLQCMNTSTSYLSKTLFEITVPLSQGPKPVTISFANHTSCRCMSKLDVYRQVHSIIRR
Procedure: as §2

human VEGFA [6] = molecular target: T1, human VEGFA; assay: blocking ELISA: VEGFR2 coated, biotinylated VEGFA with antibody dilutions (FIG. 5); reference huNb24
Procedure: as §1

human VEGFA [7] = molecular target: T1, human VEGFA; assay: blocking ELISA: VEGFR2 coated, biotinylated VEGFA with antibody dilutions (FIG. 6)
Procedure: as §1

T1 sequence (P15692 other isoform, or with tags, fused parts or gaps limits assumed): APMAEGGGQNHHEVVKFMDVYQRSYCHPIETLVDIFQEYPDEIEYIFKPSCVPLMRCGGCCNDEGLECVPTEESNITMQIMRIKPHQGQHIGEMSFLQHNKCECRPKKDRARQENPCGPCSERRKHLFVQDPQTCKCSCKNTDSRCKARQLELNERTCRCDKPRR

Binder	IC50 (human VEGFA [1])	inhibitory effect on HUVEC cell proliferation (CCK8, OD450), IC50 (human VEGFA [2])	IC50 (human VEGFA [3])	IC50 (human VEGFA [4])	IC50 (human VEGFA [5])	binding result (human VEGFB)	binding result (human VEGFD)	binding result (human VEGFC)	fold increase of blocking activity against huNb24 (human VEGFA [6])	inhibitory effect on HUVEC cell proliferation, IC50 (human VEGFA [2])	IC50 (human VEGFA [7])
Nb24 (Fc fusion, also called candidate antibody Nb24; antibody before humanization; not shown: Fc) QVQLQESGGGSVQAGGSLRLSCTASGFTFDDPDVGWFRQAPGNECELVSTISKDGSTYYTDSVKGRFTISQDYAKNTVYLQMNSLKPEDTAVYYCAADSNPIAPIRTCLGWYNYWGQGTQVTVSS	0.045 µg/mL	0.0296 µg/mL	0.0149 µg/mL								
huNb24 (Fc fusion, also called humanized antibody huNb24; antibody after humanization; not shown: Fc from the pFUSE vector) EVQLQESGGGLVQPGGSLRLSCTASGFTFDDPDVGWFRQAPGNECELVSTISKDGSTYYTDSVKGRFTISRDYAKNTVYLQMNSLRAEDTAVYYCAADSNPIAPIRTCLGWYNYWGQGTLVTVSS	0.038 µg/mL			0.044 µg/mL							
hu bi-Nb24(Y) (VHH, Bivalent tandem VHH, one chain, expressed in Pichia pastoris, no Fc; also called humanized bivalent antibody expressed by the yeast; huNb24 bivalent) EVQLQESGGGLVQPGGSLRLSCTASGFTFDDPDVGWFRQAPGNECELVSTISKDGSTYYTDSVKGRFTISRDYAKNTVYLQMNSLRAEDTAVYYCAADSNPIAPIRTCLGWYNYWGQGTLVTVSSGGGGSGGGSEVQLQESGGGLVQPGGSLRLSCTASGFTFDDPDVGWFRQAPGNECELVSTISKDGSTYYTDSVKGRFTISRDYAKNTVYLQMNSLRAEDTAVYYCAADSNPIAPIRTCLGWYNYWGQGTLVTVSS				0.013 µg/mL	0.168 µg/mL	no binding (tested: 1 ug/mL)	no binding (tested: 1 ug/mL)	no binding (tested: 1 ug/mL)	> 3 times	0.0536 µg/mL	0.022 µg/mL
